The target in experiment [1] is endogenous calnexin (HEK293T and other human cells) (human) (UniProt P27824). Description: co-immunoprecipitation with endogenous calnexin, HEK293T cells (FIG. 3A).
For experiment [2] the target is unchanged. Description: co-immunoprecipitation with endogenous calnexin, HEK293T cells transfected with mutant HIV-1 NL4-3 clone, immunoblot for Nef.
Experiment [3] has the same target. The experiment is described as follows: co-immunoprecipitation from HEK293T cells transfected with HIV-1 molecular clones; IP of endogenous calnexin with anti-CNX antibody, western blot for Nef; relative to the Nef wt lane; no Nef band is visible in this lane. On the technique in general: In western blotting, separated proteins are transferred to a membrane and probed.

Experiment [4] shares this target. The experiment is described as follows: co-immunoprecipitation from HEK293T cells transfected with HIV-1 molecular clones; IP of endogenous calnexin with anti-CNX antibody, western blot for Nef; reference lane.
The target of experiment [5] is T1, HA-tagged calnexin with deletion of the lumenal repeat segment (CNXΔ276-409) (human, UniProt P27824 21-592).
T1 construct: Made by restriction digest and re-ligation, so junction residues are not known
T1 sequence: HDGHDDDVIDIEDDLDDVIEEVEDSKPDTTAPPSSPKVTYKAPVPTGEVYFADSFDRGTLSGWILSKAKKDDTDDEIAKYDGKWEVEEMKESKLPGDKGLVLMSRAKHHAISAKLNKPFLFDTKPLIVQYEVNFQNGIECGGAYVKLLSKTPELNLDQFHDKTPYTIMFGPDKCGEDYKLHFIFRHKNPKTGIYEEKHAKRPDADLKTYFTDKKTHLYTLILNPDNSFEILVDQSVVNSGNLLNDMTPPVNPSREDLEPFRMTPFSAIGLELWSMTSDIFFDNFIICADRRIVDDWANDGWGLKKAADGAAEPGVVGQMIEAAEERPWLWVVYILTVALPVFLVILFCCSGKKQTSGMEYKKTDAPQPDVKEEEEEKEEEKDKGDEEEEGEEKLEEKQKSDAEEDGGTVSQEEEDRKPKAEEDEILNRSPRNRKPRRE
Description: co-immunoprecipitation with anti-HA beads from HEK293T lysates, immunoblot for Nef, densitometry.

Experiment [6] deals with T2, HA-tagged calnexin with truncation of the C-terminal cytoplasmic domain (CNXΔ504-586) (human, UniProt P27824 21-592).
T2 sequence: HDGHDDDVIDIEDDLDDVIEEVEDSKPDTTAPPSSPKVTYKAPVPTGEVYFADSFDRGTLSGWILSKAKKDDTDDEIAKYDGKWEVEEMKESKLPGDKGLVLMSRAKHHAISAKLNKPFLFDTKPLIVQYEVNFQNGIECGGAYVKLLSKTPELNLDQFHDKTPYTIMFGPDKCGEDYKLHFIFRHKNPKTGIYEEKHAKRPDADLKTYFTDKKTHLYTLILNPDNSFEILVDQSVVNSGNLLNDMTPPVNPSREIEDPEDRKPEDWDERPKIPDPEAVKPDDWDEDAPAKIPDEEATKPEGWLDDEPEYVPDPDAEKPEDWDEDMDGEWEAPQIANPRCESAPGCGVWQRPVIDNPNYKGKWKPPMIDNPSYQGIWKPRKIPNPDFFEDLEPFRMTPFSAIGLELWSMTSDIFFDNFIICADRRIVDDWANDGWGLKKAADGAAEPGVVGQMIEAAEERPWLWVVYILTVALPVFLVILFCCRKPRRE
Described as above.

The target of experiment [7] is T3, endogenous calnexin (HEK293T and other human cells) (human, UniProt P27824 21-592).
T3 construct: Endogenous cellular protein, immunoprecipitated with a monoclonal anti-calnexin antibody or co-precipitated with HA-Nef; also called CNX
T3 sequence: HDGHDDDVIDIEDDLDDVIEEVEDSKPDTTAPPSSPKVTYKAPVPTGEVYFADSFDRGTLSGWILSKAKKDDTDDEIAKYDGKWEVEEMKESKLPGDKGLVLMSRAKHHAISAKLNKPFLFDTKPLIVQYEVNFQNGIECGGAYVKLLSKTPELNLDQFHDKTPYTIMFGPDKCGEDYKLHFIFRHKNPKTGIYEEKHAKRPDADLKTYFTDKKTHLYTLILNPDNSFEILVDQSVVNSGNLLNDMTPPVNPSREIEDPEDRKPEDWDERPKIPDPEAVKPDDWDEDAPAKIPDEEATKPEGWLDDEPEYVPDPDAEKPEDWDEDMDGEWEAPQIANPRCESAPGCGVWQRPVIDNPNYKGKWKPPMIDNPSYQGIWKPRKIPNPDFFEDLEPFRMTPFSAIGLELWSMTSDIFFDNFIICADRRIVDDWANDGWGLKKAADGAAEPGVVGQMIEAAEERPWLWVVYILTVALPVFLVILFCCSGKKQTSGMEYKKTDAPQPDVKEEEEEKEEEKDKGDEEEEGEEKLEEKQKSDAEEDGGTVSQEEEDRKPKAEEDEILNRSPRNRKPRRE
Description: co-immunoprecipitation with endogenous calnexin, HEK293T cells, densitometry.

For experiment [8], the target named is T3, endogenous calnexin (HEK293T and other …). The experiment is described as follows: co-immunoprecipitation from HEK293T cells transfected with pcDNA Nef plasmids; IP of endogenous calnexin with anti-CNX antibody, western blot for Nef; relative to the Nef wt lane.
For experiment [9], the target named is T4, ABCA1-FLAG (ATP-binding cassette A1 with FLAG tag) (UniProt O95477 1-2261).
T4 construct: whole, on cells; Immunoprecipitated with anti-FLAG beads from lysates; not shown: FLAG tag
Description: co-immunoprecipitation with ABCA1-FLAG (anti-FLAG beads), HEK293T cells, densitometry.

In experiment [10] the target is T3, endogenous calnexin (HEK293T and other …). Description: co-immunoprecipitation with endogenous calnexin (monoclonal anti-calnexin), HEK293T cells, immunoblot for Nef.
Another experiment concerns the target T5, myristoylated NefSF2 (HIV-1, UniProt P03407 2-210, myristoylated (site not given)).
T5 construct: Analyte in SPR
The experiment is described as follows: SPR, Biacore T-200, CNX-CT amine-coupled on CM5 chip, Nef as analyte, 25 C.

Changes are numbered by the printed parent chain. In names and notes the source's numbering stands.

A word on the Kd: it is the equilibrium constant for the complex coming apart. Higher therefore signals weaker binding. The term koff denotes a measure of how fast the partners let go of each other. Higher therefore signals fast dissociation. By kon is commonly meant the second-order rate constant of association. Low values mean slower complex formation, high ones faster complex formation.

T4 sequence (O95477 whole entry): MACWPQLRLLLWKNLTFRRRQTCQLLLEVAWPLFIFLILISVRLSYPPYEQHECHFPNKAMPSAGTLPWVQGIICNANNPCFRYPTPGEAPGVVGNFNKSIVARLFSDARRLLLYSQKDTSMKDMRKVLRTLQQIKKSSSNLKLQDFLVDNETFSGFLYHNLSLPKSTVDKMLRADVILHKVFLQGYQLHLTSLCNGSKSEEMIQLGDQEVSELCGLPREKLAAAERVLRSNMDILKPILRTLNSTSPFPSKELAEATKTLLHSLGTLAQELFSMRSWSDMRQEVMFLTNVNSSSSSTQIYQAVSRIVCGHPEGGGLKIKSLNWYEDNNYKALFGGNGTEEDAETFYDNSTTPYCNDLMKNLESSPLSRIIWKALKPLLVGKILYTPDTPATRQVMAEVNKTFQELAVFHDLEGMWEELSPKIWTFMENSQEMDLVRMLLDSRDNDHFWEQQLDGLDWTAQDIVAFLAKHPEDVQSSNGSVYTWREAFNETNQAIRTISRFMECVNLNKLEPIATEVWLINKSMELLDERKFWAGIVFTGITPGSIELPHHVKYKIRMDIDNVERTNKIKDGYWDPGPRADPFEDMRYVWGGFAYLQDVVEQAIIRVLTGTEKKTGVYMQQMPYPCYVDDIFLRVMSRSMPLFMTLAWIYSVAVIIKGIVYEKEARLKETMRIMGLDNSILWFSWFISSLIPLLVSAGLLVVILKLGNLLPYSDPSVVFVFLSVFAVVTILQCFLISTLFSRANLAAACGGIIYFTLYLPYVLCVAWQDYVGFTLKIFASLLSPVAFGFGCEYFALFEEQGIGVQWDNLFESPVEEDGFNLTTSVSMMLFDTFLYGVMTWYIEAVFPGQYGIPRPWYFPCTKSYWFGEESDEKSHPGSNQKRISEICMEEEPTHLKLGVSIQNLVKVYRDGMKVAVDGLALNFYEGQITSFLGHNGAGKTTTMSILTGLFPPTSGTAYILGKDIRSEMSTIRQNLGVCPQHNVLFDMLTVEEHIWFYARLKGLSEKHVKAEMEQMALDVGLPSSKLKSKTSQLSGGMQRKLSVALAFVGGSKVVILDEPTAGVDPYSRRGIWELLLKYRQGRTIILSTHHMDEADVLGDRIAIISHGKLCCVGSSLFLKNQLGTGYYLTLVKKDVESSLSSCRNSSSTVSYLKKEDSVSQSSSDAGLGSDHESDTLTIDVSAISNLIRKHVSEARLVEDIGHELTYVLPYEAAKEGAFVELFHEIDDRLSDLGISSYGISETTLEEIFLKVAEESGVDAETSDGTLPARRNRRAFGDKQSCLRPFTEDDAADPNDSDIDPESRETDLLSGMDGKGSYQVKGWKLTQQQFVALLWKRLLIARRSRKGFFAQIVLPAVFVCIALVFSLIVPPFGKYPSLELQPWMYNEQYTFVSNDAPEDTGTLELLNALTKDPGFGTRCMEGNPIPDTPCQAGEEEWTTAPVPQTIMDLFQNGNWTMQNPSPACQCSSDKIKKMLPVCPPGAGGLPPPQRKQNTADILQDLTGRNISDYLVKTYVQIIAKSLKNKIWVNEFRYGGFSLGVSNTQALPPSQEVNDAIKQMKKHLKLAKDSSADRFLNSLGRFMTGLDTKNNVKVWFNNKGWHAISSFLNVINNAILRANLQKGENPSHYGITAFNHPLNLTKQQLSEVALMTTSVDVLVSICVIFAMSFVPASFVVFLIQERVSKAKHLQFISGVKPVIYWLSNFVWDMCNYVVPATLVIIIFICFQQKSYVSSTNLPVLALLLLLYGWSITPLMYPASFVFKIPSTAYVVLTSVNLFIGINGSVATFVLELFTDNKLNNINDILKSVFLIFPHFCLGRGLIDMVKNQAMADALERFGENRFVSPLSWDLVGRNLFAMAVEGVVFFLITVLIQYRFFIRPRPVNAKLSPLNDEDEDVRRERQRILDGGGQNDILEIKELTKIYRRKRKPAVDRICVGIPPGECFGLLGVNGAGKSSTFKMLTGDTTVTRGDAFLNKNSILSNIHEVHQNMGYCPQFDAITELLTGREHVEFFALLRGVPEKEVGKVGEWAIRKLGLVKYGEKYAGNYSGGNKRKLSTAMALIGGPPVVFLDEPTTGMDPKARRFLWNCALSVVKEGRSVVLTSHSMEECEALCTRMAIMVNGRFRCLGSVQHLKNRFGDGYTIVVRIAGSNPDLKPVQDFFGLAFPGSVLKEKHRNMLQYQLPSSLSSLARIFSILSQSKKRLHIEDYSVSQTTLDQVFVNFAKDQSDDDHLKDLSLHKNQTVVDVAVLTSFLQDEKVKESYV

“HIV-1 NL4-3 Nef K4,7A mutant (expressed from mutant HIV-1 NL4-3 clone)” registered a loss of interaction relative to Nef WT in experiment [1] of over 95%. Also, the reduction of interaction relative to Nef WT in experiment [2] was found to be 95%. In experiment [3], the relative amount of co-precipitated Nef (gel densitometry) was 0.05.
The molecule “HIV-1 NL4-3 Nef, wild type (expressed from HIV-1 NL4-3 molecular clone)” returned a relative amount of co-precipitated Nef (gel densitometry) in [4] of 1.

B1: HIV-1 Nef, BRU isolate, wild type (NefBRU) (other)
chain: GGKWSKSSVVGWPTVRERMRRAEPAADGVGAASRDLEKHGAITSSNTAATNAACAWLEAQEEEEVGFPVTPQVPLRPMTYKAAVDLSHFLKEKGGLEGLIHSQRRQDILDLWIYHTQGYFPDWQNYTPGPGVRYPLTFGWCYKLVPVEPDKVEEANKGENTSLLHPVSLHGMDDPEREVLEWRFDSRLAFHHVARELHPEYFKNC
notes: whole, on cells; also called Nef WT; WT Nef
For B1, the “reduction of binding relative to WT calnexin” value in [5] came out at 40%; in experiment [6], 70%.

B2: HIV-1 Nef BRU K7A mutant (NefK7A) (other)
chain: B1 chain with K6A
notes: whole, on cells; Expressed in HEK293T cells, co-immunoprecipitated from lysates
Regarding B2, the “reduction of interaction relative to WT Nef” value in experiment [7] turned out to be 90%. Further, the “relative amount of co-precipitated Nef (gel densitometry)” value (“relative amount of co-precipitated Nef” for short) in [8] is 0.1.

B3: HIV-1 Nef BRU K4A mutant (NefK4A) (other)
chain: B1 chain with K3A
notes: as for B2
With B3, the “reduction of interaction relative to WT Nef” value in experiment [7] came out at 50%. Moreover, the “relative amount of co-precipitated Nef” value in experiment [8] came out at 0.5.

B4: HIV-1 Nef BRU K4,7A double mutant (NefK4,7A, pcDNA plasmid) (other)
chain: B1 chain with K3A, K6A
notes: as for B2
B4: the “reduction of interaction relative to wild-type Nef” value in experiment [9] was about 30%. Also, the binding result in experiment [10] was “no binding”. Moreover, in experiment [8], the “relative amount of co-precipitated Nef” value came out at 0.01.

B5: recombinant calnexin cytoplasmic tail (CNX-CT), N-terminal His-tag and SUMO domain, purified from E. coli (other)
chain: HHHHHHHHCSGKKQTSGMEYKKTDAPQPDVKEEEEEKEEEKDKGDEEEEGEEKLEEKQKSDAEEDGGTVSQEEEDRKPKAEEDEILNRSPRNRKPRRE
notes: also called cytoplasmic tail of CNX; C-terminal (cytoplasmic) domain of CNX
In the experiment with myristoylated NefSF2, B5 came in with a Kd of 9.4 nM, a koff of 0.00857 s⁻¹ and a kon of 908000 M⁻¹ s⁻¹.

For the origin of these results see patent US10684274 (GEORGE WASHINGTON UNIVERSITY A CONGRESSIONALLY CHARTERED …, dated 2020).
